Measured values taken from the Human Domainome abundance scans (Beltran et al. 2025).
± gives the uncertainty stated by the source.

B1: Steroid hormone receptor ERR2, residues 100 to 176; numbered along this chain, O95718 (parent)
chain: KRLCLVCGDIASGYHYGVASCEACKAFFKRTIQGNIEYSCPATNECEITKRRRKSCQACRFMKCLKVGMLKEGVRLD

Variants of: B1
Test: abundance fitness (aPCA) (normalised: wild type 0, dead -1); higher = more abundant; growth selection in yeast, the domain comes from the species named
Details: Homo sapiens

Variant	abundance fitness
T31I	-0.295 ± 0.12
D9M	-0.216 ± 0.074
D9Y	-0.351 ± 0.11
D9C	-0.829 ± 0.22
Y38R	-0.347 ± 0.049
Y38A	-0.554 ± 0.085
Y38K	-0.725 ± 0.15
Y38V	-0.541 ± 0.089
Y38M	-0.548 ± 0.11
Y38H	-0.196 ± 0.17
Y38C	-0.293 ± 0.1
F27Q	-0.945 ± 0.13
F27W	-0.578 ± 0.068
F27K	-0.506 ± 0.077
F27G	-0.745 ± 0.06
F27C	-0.119 ± 0.063
E47D	0.038 ± 0.082
E47S	-0.229 ± 0.064
E47Q	-0.083 ± 0.069
G73Q	0.046 ± 0.072
G73D	0.133 ± 0.079
G73K	0.017 ± 0.068
G73E	0.118 ± 0.052
G73R	-0.056 ± 0.043

Variant	abundance fitness
G73A	0.08 ± 0.049
L65A	-0.256 ± 0.064
L65S	-0.442 ± 0.071
L65M	-0.175 ± 0.071
S20M	-0.322 ± 0.066
S20K	-0.218 ± 0.059
S20D	-0.218 ± 0.094
S20I	0.26 ± 0.075
S55M	0.374 ± 0.062
S55Y	0.206 ± 0.079
C24W	-0.784 ± 0.075
C24R	-0.744 ± 0.061
C24L	-0.787 ± 0.071
C24I	-0.707 ± 0.21
C24K	-1.07 ± 0.2
Q57L	-0.232 ± 0.046
Q57F	-0.243 ± 0.089
Q57C	-0.152 ± 0.067
Q57T	-0.325 ± 0.067
K25D	0.375 ± 0.049
K25L	0.224 ± 0.033
K25T	0.146 ± 0.046
K25G	0.41 ± 0.029
I48S	-0.108 ± 0.061

Variant	abundance fitness
I48N	0.266 ± 0.16
I48P	-0.242 ± 0.11
N44I	0.034 ± 0.13
N44H	-0.314 ± 0.12
R51H	-0.08 ± 0.084
R51I	-0.269 ± 0.11
R51F	-0.161 ± 0.096
R51W	0.022 ± 0.14
L76P	-0.079 ± 0.08
L76A	0.124 ± 0.057
L76N	0.056 ± 0.12
L76V	0.058 ± 0.045
L76G	0.055 ± 0.043
L76E	0.146 ± 0.053
A42I	0.027 ± 0.094
A42F	-0.209 ± 0.09
A42Q	-0.191 ± 0.068
A42H	-0.445 ± 0.13
F28P	-0.725 ± 0.14
F28A	-0.321 ± 0.054
F28W	0.167 ± 0.039
N35Q	0.05 ± 0.055
N35F	-0.275 ± 0.12
N35T	-0.017 ± 0.056

Variant	abundance fitness
K54E	0.129 ± 0.055
K54Q	0.195 ± 0.065
I10M	-0.065 ± 0.054
I10Y	-0.029 ± 0.084
I10H	-0.011 ± 0.084
I10F	0.056 ± 0.091
I10D	0.195 ± 0.067
I10C	-0.058 ± 0.077
R75A	0.035 ± 0.046
R75P	0.031 ± 0.068
R75N	-0.074 ± 0.1
R75F	-0.014 ± 0.079
G68H	-0.657 ± 0.17
G68R	-0.903 ± 0.098
G68W	-0.806 ± 0.12
G68K	-0.454 ± 0.099
G68N	-0.753 ± 0.33
G68T	-0.849 ± 0.2
G68C	-0.808 ± 0.18
G68Q	-0.944 ± 0.2
E22H	-0.091 ± 0.074
E22F	-0.449 ± 0.12
E22L	-0.233 ± 0.046
S12N	-0.019 ± 0.087

Variant	abundance fitness
S12Y	-0.32 ± 0.12
S12A	0.031 ± 0.053
S12P	-0.161 ± 0.087
S12R	-0.026 ± 0.047
S12V	0.029 ± 0.051
K1F	-0.641 ± 0.23
K1G	-0.386 ± 0.071
K1E	-0.128 ± 0.07
K1H	-0.525 ± 0.29
K1D	-0.089 ± 0.092
K1V	-0.334 ± 0.087
V18Q	-0.375 ± 0.089
V18A	-0.26 ± 0.072
C7P	-0.673 ± 0.14
C7K	-1.19 ± 0.23
C7H	-1 ± 0.28
C7L	-1.17 ± 0.17
C7S	-0.726 ± 0.097
C7Q	-0.918 ± 0.16
E72A	-0.088 ± 0.061
E72R	-0.355 ± 0.057
E72L	-0.424 ± 0.066
E72M	-0.448 ± 0.12
E72C	-0.262 ± 0.089

Variant	abundance fitness
M62H	-0.496 ± 0.16
M62G	-0.059 ± 0.039
M62E	0.086 ± 0.05
R30A	-0.312 ± 0.065
R30P	-0.989 ± 0.26
R30C	-0.573 ± 0.12
R30N	-0.381 ± 0.38
T43F	-0.558 ± 0.14
T43P	-0.393 ± 0.086
T43K	0.212 ± 0.051
T43A	0.081 ± 0.046
T43I	-0.065 ± 0.1
T43D	-0.152 ± 0.086
T43W	-0.021 ± 0.046
T43N	-0.085 ± 0.083
C21N	-1 ± 0.38
C21Y	-0.89 ± 0.41
C21Q	-1.01 ± 0.19
C21E	-0.814 ± 0.11
C21R	-0.761 ± 0.075
C21V	-0.818 ± 0.09
R2S	-0.187 ± 0.066
R2T	-0.263 ± 0.07
R2H	0.072 ± 0.11

Variant	abundance fitness
R2W	-0.338 ± 0.082
R2N	0.04 ± 0.1
R2M	-0.074 ± 0.067
R2D	0.125 ± 0.1
R2P	-0.502 ± 0.19
R2G	-0.176 ± 0.058
C59F	-0.451 ± 0.18
C59Q	-0.891 ± 0.22
A58Q	-0.145 ± 0.06
A58G	-0.205 ± 0.043
A58C	-0.346 ± 0.078
C64D	-1.05 ± 0.26
C64W	-0.531 ± 0.083
C64G	-0.582 ± 0.059
C64I	-0.478 ± 0.2
C64F	-0.686 ± 0.21
C64Y	-0.95 ± 0.26
C64P	-0.747 ± 0.16
C64M	-0.273 ± 0.081
Q33W	-0.411 ± 0.073
Q33R	-0.307 ± 0.047
Q33G	-0.165 ± 0.043
P41S	-0.137 ± 0.047
